Results as given in publication doi:10.1101/2022.02.28.482286 (bioRxiv, 2022).

Assays:
Assay in all cases: cryo-EM structure
[1] = target: T1, Pol III subunit C128 (S. cerevisiae, UniProt P22276 1-1149)
T1 sequence (looked up): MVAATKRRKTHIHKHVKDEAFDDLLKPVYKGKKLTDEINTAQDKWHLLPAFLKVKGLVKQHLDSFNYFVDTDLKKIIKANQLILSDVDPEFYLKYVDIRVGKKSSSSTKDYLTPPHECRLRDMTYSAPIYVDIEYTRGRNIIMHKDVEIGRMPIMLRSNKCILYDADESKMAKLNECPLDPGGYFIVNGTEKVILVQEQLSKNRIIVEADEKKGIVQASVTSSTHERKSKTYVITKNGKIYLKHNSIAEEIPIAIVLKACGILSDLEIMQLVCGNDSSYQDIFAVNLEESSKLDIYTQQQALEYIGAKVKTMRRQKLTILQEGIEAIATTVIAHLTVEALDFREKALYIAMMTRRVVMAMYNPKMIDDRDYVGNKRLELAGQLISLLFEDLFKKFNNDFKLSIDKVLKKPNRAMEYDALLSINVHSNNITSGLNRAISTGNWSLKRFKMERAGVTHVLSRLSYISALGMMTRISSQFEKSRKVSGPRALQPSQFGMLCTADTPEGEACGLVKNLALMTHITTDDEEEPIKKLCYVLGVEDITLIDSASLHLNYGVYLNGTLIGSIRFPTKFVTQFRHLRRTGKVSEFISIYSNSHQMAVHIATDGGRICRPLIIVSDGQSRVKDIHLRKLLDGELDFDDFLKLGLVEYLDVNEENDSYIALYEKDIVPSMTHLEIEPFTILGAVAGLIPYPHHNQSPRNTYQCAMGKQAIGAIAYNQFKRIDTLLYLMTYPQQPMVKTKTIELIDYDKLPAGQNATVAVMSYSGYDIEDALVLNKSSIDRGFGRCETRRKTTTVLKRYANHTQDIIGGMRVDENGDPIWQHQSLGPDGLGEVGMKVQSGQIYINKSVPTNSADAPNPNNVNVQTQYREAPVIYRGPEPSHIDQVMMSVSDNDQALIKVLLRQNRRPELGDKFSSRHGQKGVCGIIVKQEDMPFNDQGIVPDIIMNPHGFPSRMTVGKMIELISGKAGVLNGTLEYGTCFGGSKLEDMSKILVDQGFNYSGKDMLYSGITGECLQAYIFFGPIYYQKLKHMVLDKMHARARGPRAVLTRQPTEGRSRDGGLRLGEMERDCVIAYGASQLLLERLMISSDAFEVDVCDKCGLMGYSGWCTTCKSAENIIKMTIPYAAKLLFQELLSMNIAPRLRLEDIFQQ

[2] = target: T2, Pol III subunit C53 (S. cerevisiae, UniProt P25441 1-422)
T2 sequence (looked up): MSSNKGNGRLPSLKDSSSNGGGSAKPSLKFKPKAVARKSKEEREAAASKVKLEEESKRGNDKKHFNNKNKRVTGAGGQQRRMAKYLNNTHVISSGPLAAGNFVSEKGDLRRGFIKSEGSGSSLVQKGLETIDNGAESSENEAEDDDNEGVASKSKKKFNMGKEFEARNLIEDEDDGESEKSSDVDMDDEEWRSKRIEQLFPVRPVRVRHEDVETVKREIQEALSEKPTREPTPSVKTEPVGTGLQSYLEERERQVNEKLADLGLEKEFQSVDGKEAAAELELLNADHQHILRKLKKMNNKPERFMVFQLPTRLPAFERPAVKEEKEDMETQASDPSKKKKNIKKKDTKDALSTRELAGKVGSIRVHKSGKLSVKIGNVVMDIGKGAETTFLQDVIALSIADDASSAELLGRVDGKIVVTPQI

[3] = target: T3, Pol III subunit C160 (S. cerevisiae, UniProt P04051 1-1460)
T3 sequence (looked up): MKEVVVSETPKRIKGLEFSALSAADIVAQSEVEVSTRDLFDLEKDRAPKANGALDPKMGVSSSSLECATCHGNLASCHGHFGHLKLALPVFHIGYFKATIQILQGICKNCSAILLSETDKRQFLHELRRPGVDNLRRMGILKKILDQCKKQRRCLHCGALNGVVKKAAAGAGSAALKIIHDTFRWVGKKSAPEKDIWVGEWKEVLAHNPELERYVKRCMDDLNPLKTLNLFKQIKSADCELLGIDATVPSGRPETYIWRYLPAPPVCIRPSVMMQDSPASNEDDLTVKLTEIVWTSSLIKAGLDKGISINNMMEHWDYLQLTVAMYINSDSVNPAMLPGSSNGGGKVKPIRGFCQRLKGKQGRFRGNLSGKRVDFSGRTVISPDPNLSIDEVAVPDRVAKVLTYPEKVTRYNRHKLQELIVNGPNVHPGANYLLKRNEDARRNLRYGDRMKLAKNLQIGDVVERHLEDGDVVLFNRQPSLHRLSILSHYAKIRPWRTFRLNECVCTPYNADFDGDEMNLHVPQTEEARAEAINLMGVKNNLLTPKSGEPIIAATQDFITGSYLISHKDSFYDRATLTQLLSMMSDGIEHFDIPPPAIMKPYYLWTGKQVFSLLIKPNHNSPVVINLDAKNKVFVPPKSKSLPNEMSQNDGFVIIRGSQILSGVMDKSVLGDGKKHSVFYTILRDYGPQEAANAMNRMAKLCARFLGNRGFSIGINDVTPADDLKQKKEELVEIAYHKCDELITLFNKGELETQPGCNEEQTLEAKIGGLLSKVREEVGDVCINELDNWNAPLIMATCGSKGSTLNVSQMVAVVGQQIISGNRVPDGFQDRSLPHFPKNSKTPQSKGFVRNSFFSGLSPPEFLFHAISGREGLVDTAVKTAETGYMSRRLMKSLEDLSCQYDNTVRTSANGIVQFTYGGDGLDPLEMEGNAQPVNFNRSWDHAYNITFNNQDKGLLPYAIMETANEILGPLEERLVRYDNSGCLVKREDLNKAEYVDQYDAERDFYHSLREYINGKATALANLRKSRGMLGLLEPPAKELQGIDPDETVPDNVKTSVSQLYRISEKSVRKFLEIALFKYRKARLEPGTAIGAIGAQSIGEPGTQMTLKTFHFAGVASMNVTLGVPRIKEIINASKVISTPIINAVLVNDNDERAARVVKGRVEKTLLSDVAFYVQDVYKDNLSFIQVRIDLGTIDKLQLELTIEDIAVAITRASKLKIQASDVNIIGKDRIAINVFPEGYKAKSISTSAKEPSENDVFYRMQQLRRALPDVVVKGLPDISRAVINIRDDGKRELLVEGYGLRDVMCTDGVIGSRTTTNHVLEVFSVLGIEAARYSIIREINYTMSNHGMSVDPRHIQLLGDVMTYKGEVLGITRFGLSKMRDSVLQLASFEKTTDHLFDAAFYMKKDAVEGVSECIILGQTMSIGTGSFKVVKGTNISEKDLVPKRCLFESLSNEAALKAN

[4] = target: T4, subunit ABC27 (S. cerevisiae, UniProt P20434 1-215)
T4 sequence (looked up): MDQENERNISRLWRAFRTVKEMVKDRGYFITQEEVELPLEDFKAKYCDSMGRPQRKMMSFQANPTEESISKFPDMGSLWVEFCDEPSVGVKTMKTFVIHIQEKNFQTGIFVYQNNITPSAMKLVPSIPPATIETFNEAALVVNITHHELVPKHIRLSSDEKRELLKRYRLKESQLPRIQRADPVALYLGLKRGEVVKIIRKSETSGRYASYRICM

B1: C53-C37 heterodimer (complex, S. cerevisiae)
chain 1: T2 sequence (looked up)
chain 2: MSIDNKLFVTEEDEEDRTQDRADVEDESNDIDMIADENGTNSAIANEQEEKSEEVKAEDDTGEEEEDDPVIEEFPLKISGEEESLHVFQYANRPRLVGRKPAEHPFISAARYKPKSHLWEIDIPLDEQAFYNKDKAESEWNGVNVQTLKGVGVENNGQYAAFVKDMQVYLVPIERVAQLKPFFKYIDDANVTRKQEDARRNPNPSSQRAQVVTMSVKSVNDPSQNRLTGSLLAHKVADEEANIELTWAEGTFEQFKDTIVKEAEDKTLVALEKQEDYIDNLV
B1: binds [1].

B2: Pol III subunit C37 (natural protein, S. cerevisiae, UniProt P36121 1-282, looked up)
chain: B1 chain 2
B2: binds [1]; binds [2].

B3: Pol III subunit C11 (natural protein, S. cerevisiae, UniProt Q04307 1-110, looked up)
chain: MLSFCPSCNNMLLITSGDSGVYTLACRSCPYEFPIEGIEIYDRKKLPRKEVDDVLGGGWDNVDQTKTQCPNYDTCGGESAYFFQLQIRSADEPMTTFYKCVNCGHRWKEN
B3: binds [3]; binds [4].
